Molecular target: PA28γ (endogenous, U2OS cells) (human (endogenous in U2OS)) (UniProt P61289)
Assay: proximity ligation

Chain of UniProt P61289 (P61289 whole entry): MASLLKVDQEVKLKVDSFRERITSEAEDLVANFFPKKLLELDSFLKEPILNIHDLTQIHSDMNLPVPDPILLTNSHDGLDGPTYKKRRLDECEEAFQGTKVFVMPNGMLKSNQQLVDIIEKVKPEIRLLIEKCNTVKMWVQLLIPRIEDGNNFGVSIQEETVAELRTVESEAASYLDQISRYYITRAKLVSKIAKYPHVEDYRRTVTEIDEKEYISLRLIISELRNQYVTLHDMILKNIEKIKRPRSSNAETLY

- PLA dots per nucleus (PLA dots per nucleus): < 60
Substance: 20S proteasome (endogenous, U2OS cells), detected by its α4 subunit (from UniProt O14818 1-248) (complex)

Reference: paper doi:10.1101/716332
